Measurements reported in paper PMC8552062, “Contributions of UDP-Glucuronosyltransferases to Human Hepatic and Intestinal Metabolism of Ticagrelor and Inhibition of UGTs and Cytochrome P450 Enzymes by Ticagrelor and its Glucuronidated Metabolite” (Frontiers in Pharmacology, 2021).

How the values were obtained:
[1] = system: ticagrelor glucuronidation in pooled HIM; assay: Effects of typical UGT inhibitors on ticagrelor glucuronidation in pooled HIM; format: in vitro ADME, human; details: 10 μM ticagrelor
Protocol: (§1) Ticagrelor glucuronidation was investigated in an in vitro incubation system by using HLM, HIM, and recombinant human UGTs. The incubation system consisted of enzyme sources (HLM, HIM, or human recombinant UGTs), various concentrations of ticagrelor (dissolved in 50% methanol, 1% v/v, 1, 2, 5, 10, 20, 50, 100, 200, 500 μM of final concentration), alamethicin (50 μg/mg protein), 5 mM MgCl2, 100 mM tris-HCL buffer (pH 7.4), and 5 mM UDPGA in a total volume of 100 μl. Alamethicin is a pore-forming polypeptide used to activate UGTs in HLM and HIM ([Fisher et al., 2000]). Preliminary studies were conducted to determine the optimal protein concentrations and incubation times. Linear conditions of ticagrelor-O-Glu formation from ticagrelor, i.e., HLM, 0.2 mg of protein/ml and 60 min, HIM, 0.2 mg of protein/ml and 60 min, and recombinant human UGTs, 0.2 mg of protein/ml and 60 min were selected. The incubation mixture without UDPGA was placed on ice for 15 min to activate UGT by alamethicin. After pre-incubation for 5 min at 37°C, the reactions were started by the addition of UDPGA. After another 60 min of incubation at 37°C, the reaction was terminated by adding 100 μl of acetonitrile containing internal standard (diazepam). The mixture vortexed for 2 min and then centrifuged at 14,000 rpm for 10 min at 4°C. The resulting supernatant was injected into a liquid chromatography tandem mass spectrometry (LC-MS/MS, Applied Biosystems/MDS Sciex, Foster City, CA) system for the detection of ticagrelor-O-Glu.
(§2) The final concentrations of UGT inhibitors for each UGT isoform were set in accordance with previous publications as follows: atazanavir, 1 μM, UGT1A1; celastrol, 5 μM, UGT1A3; hecogenin, 1 μM, UGT1A4; niflumic acid, 1 μM, UGT1A9; and mefenamic acid, 20 μM, UGT2B7 ([Lee et al., 2019]). The assays were performed as described above, with 10 μM ticagrelor. The percentage of remaining glucuronidation activity was expressed by the following equation: Remaining activity(%)=Concentration of ticagrelor-O-Glu with inhibitor /Concentration of ticagrelor-O-Glu without inhibitor×100.

[2] = system: ticagrelor glucuronidation in pooled HLM; assay: Effects of typical UGT inhibitors on ticagrelor glucuronidation in pooled HLM; format: in vitro ADME, human; details: 10 μM ticagrelor
Protocol: as §1, §2

[3] = substrate: CCCSc1nc(N[C@@H]2C[C@H]2c2ccc(F)c(F)c2)c2nnn([C@@H]3C[C@H](OCCO)[C@@H](O)[C@H]3O)c2n1; assay: Ticagrelor glucuronidation by recombinant human UGT1A1; format: in vitro ADME; details: other: recombinant UGT1A1, Michaelis-Menten kinetics; pH 7.4; 37.0 °C
Protocol: as §1
(§3) Kinetic analyses were performed using the mean values of triplicate determinations with either pooled HLM, HIM, or recombinant human UGTs. All data were analyzed by nonlinear regression analysis using the GraphPad Prism 6 (GraphPad Software Inc., CA, United States). Michaelis-Menten kinetics (Eq. 1) or substrate inhibition kinetics (Eq. 2) ([Houston and Kenworthy, 2000]) were tested to determine the optimal model for describing the data. […] Intrinsic clearance (CLint) was calculated by dividing Vmax by Km.

[4] = substrate: CCCSc1nc(N[C@@H]2C[C@H]2c2ccc(F)c(F)c2)c2nnn([C@@H]3C[C@H](OCCO)[C@@H](O)[C@H]3O)c2n1; assay: Ticagrelor glucuronidation by recombinant human UGT1A3; format: in vitro ADME; details: other: recombinant UGT1A3, Michaelis-Menten kinetics; pH 7.4; 37.0 °C
Protocol: as §1, §3

[5] = substrate: CCCSc1nc(N[C@@H]2C[C@H]2c2ccc(F)c(F)c2)c2nnn([C@@H]3C[C@H](OCCO)[C@@H](O)[C@H]3O)c2n1; assay: Ticagrelor glucuronidation by recombinant human UGT2B7; format: in vitro ADME; details: other: recombinant UGT2B7, Michaelis-Menten kinetics; pH 7.4; 37.0 °C
Protocol: as §1, §3

[6] = substrate: CCCSc1nc(N[C@@H]2C[C@H]2c2ccc(F)c(F)c2)c2nnn([C@@H]3C[C@H](OCCO)[C@@H](O)[C@H]3O)c2n1; assay: Ticagrelor glucuronidation by recombinant human UGT1A7; format: in vitro ADME; details: other: recombinant UGT1A7, Michaelis-Menten kinetics; pH 7.4; 37.0 °C
Protocol: as §1, §3

[7] = substrate: CCCSc1nc(N[C@@H]2C[C@H]2c2ccc(F)c(F)c2)c2nnn([C@@H]3C[C@H](OCCO)[C@@H](O)[C@H]3O)c2n1; assay: Ticagrelor glucuronidation by recombinant human UGT1A9; format: in vitro ADME; details: other: recombinant UGT1A9, Michaelis-Menten kinetics; pH 7.4; 37.0 °C
Protocol: as §1, §3

[8] = substrate: CCCSc1nc(N[C@@H]2C[C@H]2c2ccc(F)c(F)c2)c2nnn([C@@H]3C[C@H](OCCO)[C@@H](O)[C@H]3O)c2n1; assay: Ticagrelor glucuronidation by recombinant human UGT1A8; format: in vitro ADME; details: other: recombinant UGT1A8, Michaelis-Menten kinetics; pH 7.4; 37.0 °C
Protocol: as §1, §3

hecogenin was tested, and the “inhibition of ticagrelor-O-Glu formation” value ([1]; inhibitor 1 μM) was 16.75% and the “inhibition of ticagrelor-O-Glu formation” value ([2]; inhibitor 1 μM) was 9.29%.

For `Cc1cccc(Nc2ccccc2C(=O)O)c1C` [mefenamic acid], the “inhibition of ticagrelor-O-Glu formation” value ([1]; inhibitor 20 μM) was 19.24% and the “inhibition of ticagrelor-O-Glu formation” value ([2]; inhibitor 20 μM) was 42.95%.

With `O=C(O)c1cccnc1Nc1cccc(C(F)(F)F)c1` [niflumic acid] the “inhibition of ticagrelor-O-Glu formation” value ([1]; inhibitor 1 μM) was 17.45% and the “inhibition of ticagrelor-O-Glu formation” value ([2]; inhibitor 1 μM) was 35.48%.

`COC(=O)N[C@H](C(=O)N[C@@H](Cc1ccccc1)[C@@H](O)CN(Cc1ccc(-c2ccccn2)cc1)NC(=O)[C@@H](NC(=O)OC)C(C)(C)C)C(C)(C)C` [atazanavir] was tested, and the “inhibition of ticagrelor-O-Glu formation” value ([1]; inhibitor 1 μM) was 6.08% and the “inhibition of ticagrelor-O-Glu formation” value ([2]; inhibitor 1 μM) was 6.66%.

With `CC1=C(O)C(=O)C=C2C1=CC=C1[C@@]2(C)CC[C@@]2(C)[C@@H]3C[C@](C)(C(=O)O)CC[C@]3(C)CC[C@]12C` [celastrol] the “inhibition of ticagrelor-O-Glu formation” value ([1]; inhibitor 5 μM) was 25.02% and the “inhibition of ticagrelor-O-Glu formation” value ([2]; inhibitor 5 μM) was 19.35%.

B1: recombinant human UGT1A1 (Homo sapiens) (protein)
chain: HAGKILLIPVDGSHWLSMLGAIQQLQQRGHEIVVLAPDASLYIRDGAFYTLKTYPVPFQREDVKESFVSLGHNVFENDSFLQRVIKTYKKIKKDSAMLLSGCSHLLHNKELMASLAESSFDVMLTDPFLPCSPIVAQYLSLPTVFFLHALPCSLEFEATQCPNPFSYVPRPLSSHSDHMTFLQRVKNMLIAFSQNFLCDVVYSPYATLASEFLQREVTVQDLLSSASVWLFRSDFVKDYPRPIMPNMVFVGGINCLHQNPLSQEFEAYINASGEHGIVVFSLGSMVSEIPEKKAMAIADALGKIPQTVLWRYTGTRPSNLANNTILVKWLPQNDLLGHPMTRAFITHAGSHGVYESICNGVPMVMMPLFGDQMDNAKRMETKGAGVTLNVLEMTSEDLENALKAVINDKSYKENIMRLSSLHKDRPVEPLDLAVFWVEFVMRHKGAPHLRPAAHDLTWYQYHSLDVIGFLLAVVLTVAFITFKCCAYGYRKCLGKKGRVKKAHKSKTH
notes: purchased BD Gentest; host or cells: baculovirus-infected insect cells
Work on B1 yielded a Km [3] of 7.57 µM, a Vmax [3] of 2e-07 µmol/min/mg and a Vmax/Km [3] of 0.03 µL/min/mg.

B2: recombinant human UGT1A3 (Homo sapiens) (protein)
chain: GKVLVVPIDGSHWLSMREVLRELHARGHQAVVLTPEVNMHIKEENFFTLTTYAISWTQDEFDRHVLGHTQLYFETEHFLKKFFRSMAMLNNMSLVYHRSCVELLHNEALIRHLNATSFDVVLTDPVNLCAAVLAKYLSIPTVFFLRNIPCDLDFKGTQCPNPSSYIPRLLTTNSDHMTFMQRVKNMLYPLALSYICHAFSAPYASLASELFQREVSVVDILSHASVWLFRGDFVMDYPRPIMPNMVFIGGINCANRKPLSQEFEAYINASGEHGIVVFSLGSMVSEIPEKKAMAIADALGKIPQTVLWRYTGTRPSNLANNTILVKWLPQNDLLGHPMTRAFITHAGSHGVYESICNGVPMVMMPLFGDQMDNAKRMETKGAGVTLNVLEMTSEDLENALKAVINDKSYKENIMRLSSLHKDRPVEPLDLAVFWVEFVMRHKGAPHLRPAAHDLTWYQYHSLDVIGFLLAVVLTVAFITFKCCAYGYRKCLGKKGRVKKAHKSKTH
notes: as for B1
With B2 the Km [4] was 19.19 µM, the Vmax [4] was 7.8e-07 µmol/min/mg and the Vmax/Km [4] was 0.04 µL/min/mg.

B3: recombinant human UGT2B7 (Homo sapiens) (protein)
chain: GKVLVWAAEYSHWMNIKTILDELIQRGHEVTVLASSASILFDPNNSSALKIEIYPTSLTKTELENFIMQQIKRWSDLPKDTFWLYFSQVQEIMSIFGDITRKFCKDVVSNKKFMKKVQESRFDVIFADAIFPCSELLAELFNIPFVYSLSFSPGYTFEKHSGGFIFPPSYVPVVMSELTDQMTFMERVKNMIYVLYFDFWFEIFDMKKWDQFYSEVLGRPTTLSETMGKADVWLIRNSWNFQFPYPLLPNVDFVGGLHCKPAKPLPKEMEDFVQSSGENGVVVFSLGSMVSNMTEERANVIASALAQIPQKVLWRFDGNKPDTLGLNTRLYKWIPQNDLLGHPKTRAFITHGGANGIYEAIYHGIPMVGIPLFADQPDNIAHMKARGAAVRVDFNTMSSTDLLNALKRVINDPSYKENVMKLSRIQHDQPVKPLDRAVFWIEFVMRHKGAKHLRVAAHDLTWFQYHSLDVIGFLLVCVATVIFIVTKCCLFCFWKFARKAKKGKND
notes: as for B1
In the case of B3, the Km [5] is reported as 14.53 µM, the Vmax [5] is reported as 2.3e-07 µmol/min/mg and the Vmax/Km [5] is reported as 0.02 µL/min/mg.

B4: recombinant human UGT1A7 (Homo sapiens) (protein)
chain: GKLLVVPMDGSHWFTMQSVVEKLILRGHEVVVVMPEVSWQLGRSLNCTVKTYSTSYTLEDQDREFMVFADARWTAPLRSAFSLLTSSSNGIFDLFFSNCRSLFNDRKLVEYLKESCFDAVFLDPFDACGLIVAKYFSLPSVVFARGIFCHYLEEGAQCPAPLSYVPRLLLGFSDAMTFKERVWNHIMHLEEHLFCPYFFKNVLEIASEILQTPVTAYDLYSHTSIWLLRTDFVLEYPKPVMPNMIFIGGINCHQGKPVPMEFEAYINASGEHGIVVFSLGSMVSEIPEKKAMAIADALGKIPQTVLWRYTGTRPSNLANNTILVKWLPQNDLLGHPMTRAFITHAGSHGVYESICNGVPMVMMPLFGDQMDNAKRMETKGAGVTLNVLEMTSEDLENALKAVINDKSYKENIMRLSSLHKDRPVEPLDLAVFWVEFVMRHKGAPHLRPAAHDLTWYQYHSLDVIGFLLAVVLTVAFITFKCCAYGYRKCLGKKGRVKKAHKSKTH
notes: as for B1
B4 gave a Km [6] of 1.68 µM, a Vmax [6] of 1.2e-07 µmol/min/mg and a Vmax/Km [6] of 0.07 µL/min/mg.

B5: recombinant human UGT1A9 (Homo sapiens) (protein)
chain: GKLLVVPMDGSHWFTMRSVVEKLILRGHEVVVVMPEVSWQLGRSLNCTVKTYSTSYTLEDLDREFKAFAHAQWKAQVRSIYSLLMGSYNDIFDLFFSNCRSLFKDKKLVEYLKESSFDAVFLDPFDNCGLIVAKYFSLPSVVFARGILCHYLEEGAQCPAPLSYVPRILLGFSDAMTFKERVRNHIMHLEEHLLCHRFFKNALEIASEILQTPVTEYDLYSHTSIWLLRTDFVLDYPKPVMPNMIFIGGINCHQGKPLPMEFEAYINASGEHGIVVFSLGSMVSEIPEKKAMAIADALGKIPQTVLWRYTGTRPSNLANNTILVKWLPQNDLLGHPMTRAFITHAGSHGVYESICNGVPMVMMPLFGDQMDNAKRMETKGAGVTLNVLEMTSEDLENALKAVINDKSYKENIMRLSSLHKDRPVEPLDLAVFWVEFVMRHKGAPHLRPAAHDLTWYQYHSLDVIGFLLAVVLTVAFITFKCCAYGYRKCLGKKGRVKKAHKSKTH
notes: as for B1
B5 gave a Km [7] of 1.60 µM, a Vmax [7] of 9e-07 µmol/min/mg and a Vmax/Km [7] of 0.56 µL/min/mg.

B6: recombinant human UGT1A8 (Homo sapiens) (protein)
chain: GKLLVVPMDGSHWFTMQSVVEKLILRGHEVVVVMPEVSWQLGKSLNCTVKTYSTSYTLEDLDREFMDFADAQWKAQVRSLFSLFLSSSNGFFNLFFSHCRSLFNDRKLVEYLKESSFDAVFLDPFDACGLIVAKYFSLPSVVFARGIACHYLEEGAQCPAPLSYVPRILLGFSDAMTFKERVRNHIMHLEEHLFCQYFSKNALEIASEILQTPVTAYDLYSHTSIWLLRTDFVLDYPKPVMPNMIFIGGINCHQGKPLPMEFEAYINASGEHGIVVFSLGSMVSEIPEKKAMAIADALGKIPQTVLWRYTGTRPSNLANNTILVKWLPQNDLLGHPMTRAFITHAGSHGVYESICNGVPMVMMPLFGDQMDNAKRMETKGAGVTLNVLEMTSEDLENALKAVINDKSYKENIMRLSSLHKDRPVEPLDLAVFWVEFVMRHKGAPHLRPAAHDLTWYQYHSLDVIGFLLAVVLTVAFITFKCCAYGYRKCLGKKGRVKKAHKSKTH
notes: as for B1
Molecule B6 has a Km [8] of 6.63 µM, a Vmax [8] of 9e-08 µmol/min/mg and a Vmax/Km [8] of 0.01 µL/min/mg.
